Test results as given in patent US20240261333A1, “NOVEL TARGETS FOR ENHANCING ANTI-TUMOR IMMUNITY” (THE BROAD INSTITUTE, INC., priority 2021, published 2024).

T1: B3GNT2 (Homo sapiens, UniProt Q9NY97)
T1 construct: The respective ORFs of candidate genes [CD274 (NM_014143), MCL1 (NM_021960), JUNB (NM_002229), and B3GNT2 (NM_006577)] were synthesized; expressed in transfected cells; host or cells: A375 melanoma cells (lentiviral ORF overexpression)
T1 sequence (Q9NY97 1-397): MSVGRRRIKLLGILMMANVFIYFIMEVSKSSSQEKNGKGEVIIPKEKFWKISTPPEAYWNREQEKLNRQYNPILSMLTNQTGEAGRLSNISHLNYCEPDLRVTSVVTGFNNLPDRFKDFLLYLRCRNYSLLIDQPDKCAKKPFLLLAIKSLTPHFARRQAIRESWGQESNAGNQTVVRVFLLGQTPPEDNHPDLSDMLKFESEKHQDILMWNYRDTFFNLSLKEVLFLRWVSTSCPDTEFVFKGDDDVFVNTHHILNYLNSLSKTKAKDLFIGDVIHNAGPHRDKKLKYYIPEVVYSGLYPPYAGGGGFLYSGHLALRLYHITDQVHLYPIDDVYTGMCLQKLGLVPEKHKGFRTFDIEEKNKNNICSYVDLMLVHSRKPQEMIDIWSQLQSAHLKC

B1: S100A7 (protein)
chain: SNTQAERSIIGMIDMFHKYTRRDDKIEKPSLLTMMKENFPNFLSACDKKGTNYLADVFEKKDKNEDKKIDFSEFLSLLGDIATDYHKQSHGAAPCSGGSQ
B2: TELO2 (protein)
chain: MEPAPSEVRLAVREAIHALSSSEDGGHIFCTLESLKRYLGEMEPPALPREKEEFASAHFSPVLRCLASRLSPAWLELLPHGRLEELWASFFLEGPADQAFLVLMETIEGAAGPSFRLMKMARLLARFLREGRLAVLMEAQCRQQTQPGFILLRETLLGKVVALPDHLGNRLQQENLAEFFPQNYFRLLGEEVVRVLQAVVDSLQGGLDSSVSFVSQVLGKACVHGRQQEILGVLVPRLAALTQGSYLHQRVCWRLVEQVPDRAMEAVLTGLVEAALGPEVLSRLLGNLVVKNKKAQFVMTQKLLFLQSRLTTPMLQSLLGHLAMDSQRRPLLLQVLKELLETWGSSSAIRHTPLPQQRHVSKAVLICLAQLGEPELRDSRDELLASMMAGVKCRLDSSLPPVRRLGMIVAEVVSARIHPEGPPLKFQYEEDELSLELLALASPQPAGDGASEAGTSLVPATAEPPAETPAEIVDGGVPQAQLAGSDSDLDSDDEFVPYDMSGDRELKSSKAPAYVRDCVEALTTSEDIERWEAALRALEGLVYRSPTATREVSVELAKVLLHLEEKTCVVGFAGLRQRALVAVTVTDPAPVADYLTSQFYALNYSLRQRMDILDVLTLAAQELSRPGCLGRTPQPGSPSPNTPCLPEAAVSQPGSAVASDWRVVVEERIRSKTQRLSKGGPRQGPAGSPSRFNSVAGHFFFPLLQRFDRPLVTFDLLGEDQLVLGRLAHTLGALMCLAVNTTVAVAMGKALLEFVWALRFHIDAYVRQGLLSAVSSVLLSLPAARLLEDLMDELLEARSWLADVAEKDPDEDCRTLALRALLLLQRLKNRLLPPASP
B3: YTHDF2 (protein)
chain: SASSLLEQRPKGQGNKVQNGSVHQKDGLNDDDFEPYLSPQARPNNAYTAMSDSYLPSYYSPSIGFSYSLGEAAWSTGGDTAMPYLTSYGQLSNGEPHFLPDAMFGQPGALGSTPFLGQHGFNFFPSGIDFSAWGNNSSQGQSTQSSGYSSNYAYAPSSLGGAMIDGQSAFANETLNKAPGMNTIDQGMAALKLGSTEVASNVPKVVGSAVGSGSITSNIVASNSLPPATIAPPKPASWADIASKPAKQQPKLKTKNGIAGSSLPPPPIKHNMDIGTWDNKGPVAKAPSQALVQNIGQPTQGSPQPVGQQANNSPPVAQASVGQQTQPLPPPPPQPAQLSVQQQAAQPTRWVAPRNRGSGFGHNGVDGNGVGQSQAGSGSTPSEPHPVLEKLRSINNYNPKDFDWNLKHGRVFIIKSYSEDDIHRSIKYNIWCSTEHGNKRLDAAYRSMNGKGPVYLLFSVNGSGHFCGVAEMKSAVDYNTCAGVWSQDKWKGRFDVRWIFVKDVPNSQLRHIRLENNENKPVTNSRDTQEVPLEKAKQVLKIIASYKHTTSIFDDFSHYEKRQEEEESVKKERQGRGK
B4: PHGDH (protein)
chain: AFANLRKVLISDSLDPCCRKILQDGGLQVVEKQNLSKEELIAELQDCEGLIVRSATKVTADVINAAEKLQVVGRAGTGVDNVDLEAATRKGILVMNTPNGNSLSAAELTCGMIMCLARQIPQATASMKDGKWERKKFMGTELNGKTLGILGLGRIGREVATRMQSFGMKTIGYDPIISPEVSASFGVQQLPLEEIWPLCDFITVHTPLLPSTTGLLNDNTFAQCKKGVRVVNCARGGIVDEGALLRALQSGQCAGAALDVFTEEPPRDRALVDHENVISCPHLGASTKEAQSRCGEEIAVQFVDMVKGKSLTGVVNAQALTSAFSPHTKPWIGLAEALGTLMRAWAGSPKGTIQVITQGTSLKNAGNCLSPAVIVGLLKEASKQADVNLVNAKLLVKEAGLNVTTSHSPAAPGEQGFGECLLAVALAGAPYQAVGLVQGTTPVLQGLNGAVFRPEVPLRRDLPLLLFRTQTSDPAMLPTMIGLLAEAGVRLLSYQTSLVSDGETWHVMGISSLLPSLEAWKQHVTEAFQFHF
B5: HNRNPM (protein)
chain: AAGVEAAAEVAATEIKMEEESGAPGVPSGNGAPGPKGEGERPAQNEKRKEKNIKRGGNRFEPYANPTKRYRAFITNIPFDVKWQSLKDLVKEKVGEVTYVELLMDAEGKSRGCAVVEFKMEESMKKAAEVLNKHSLSGRPLKVKEDPDGEHARRAMQKVMATTGGMGMGPGGPGMITIPPSILNNPNIPNEIIHALQAGRLGSTVFVANLDYKVGWKKLKEVFSMAGVVVRADILEDKDGKSRGIGTVTFEQSIEAVQAISMFNGQLLFDRPMHVKMDERALPKGDFFPPERPQQLPHGLGGIGMGLGPGGQPIDANHLNKGIGMGNIGPAGMGMEGIGFGINKMGGMEGPFGGGMENMGRFGSGMNMGRINEILSNALKRGEIIAKQGGGGGGGSVPGIERMGPGIDRLGGAGMERMGAGLGHGMDRVGSEIERMGLVMDRMGSVERMGSGIERMGPLGLDHMASSIERMGQTMERIGSGVERMGAGMGFGLERMAAPIDRVGQTIERMGSGVERMGPAIERMGLSMERMVPAGMGAGLERMGPVMDRMATGLERMGANNLERMGLERMGANSLERMGLERMGANSLERMGPAMGPALGAGIERMGLAMGGGGGASFDRAIEMERGNFGGSFAGSFGGAGGHAPGVARKACQIFVRNLPFDFTWKMLKDKFNECGHVLYADIKMENGKSKGCGVVKFESPEVAERACRMMNGMKLSGREIDVRIDRNA
B6: SYNPO (protein, UniProt Q8N3V7 1-929, looked up)
Synaptopodin: MLGPHLPPPPLAPSEGRPTPCAFQIPDGSYRCLALEAEESSGEEGLQGEVGPTDLEEDEGVSRSGDDSACRVTQGTPQLPKALGIQPPSCSREEQGASQHDDRASQDWDVVKAGQMMTASPSPGPGPRVAQKPALGRSTSLTEKDLKEAKARSQQIAAQLTTPPSSNSRGVQLFNRRRQRVNEFTLESHGQRGQKPSQESLRVLPSSLPGHAPGLSLSSTSLPEPGPPRHPSPQSPDRGVPGHSMEGYSEEASLLRHLEKVASEEEEVPLVVYLKENAALLTANGLHLSQNREAQQSSPAPPPAEVHSPAADVNQNLASPSATLTTPTSNSSHNPPATDVNQNPPATVVPQSLPLSSIQQNSSEAQLPSNGTGPASKPSTLCADGQPQAPAEEVRCSTLLIDKVSTPATTTSTFSREATLIPSSRPPASDFMSSSLLIDIQPNTLVVSADQEMSGRAAATTPTKVYSEVHFTLAKPPSVVNRTARPFGIQAPGGTSQMERSPMLERRHFGEKAPAPQPPSLPDRSPRPQRHIMSRSPMVERRMMGQRSPASERRPLGNFTAPPTYTETLSTAPLASWVRSPPSYSVLYPSSDPKSSHLKGQAVPASKTGILEESMARRGSRKSMFTFVEKPKVTPNPDLLDLVQTADEKRRQRDQGEVGVEEEPFALGAEASNFQQEPAPRDRASPAAAEEVVPEWASCLKSPRIQAKPKPKPNQNLSEASGKGAELYARRQSRMEKYVIESSSHTPELARCPSPTMSLPSSWKYPTNAPGAFRVASRSPARTPPASLYHGYLPENGVLRPEPTKQPPYQLRPSLFVLSPIKEPAKVSPRAASPAKPSSLDLVPNLPKGALPPSPALPRPSRSSPGLYTSPGQDSLQPTAVSPPYGGDISPVSPSRAWSPRAKQAPRPSFSTRNAGIEAQVWKPSFCFK
B7: SERPINB3 (protein)
chain: MNSLSEANTKFMFDLFQQFRKSKENNIFYSPISITSALGMVLLGAKDNTAQQIKKVLHFDQVTENTTGKAATYHVDRSGNVHHQFQKLLTEFNKSTDAYELKIANKLFGEKTYLFLQEYLDAIKKFYQTSVESVDFANAPEESRKKINSWVESQTNEKIKNLIPEGNIGSNTTLVLVNAIYFKGQWEKKFNKEDTKEEKFWPNKNTYKSIQMMRQYTSFHFASLEDVQAKVLEIPYKGKDLSMIVLLPNEIDGLQKLEEKLTAEKLMEWTSLQNMRETRVDLHLPRFKVEESYDLKDTLRTMGMVDIFNGDADLSGMTGSRGLVLSGVLHKAFVEVTEEGAEAAAATAVVGFGSSPTSTNEEFHCNHPFLFFIRQNKTNSILFYGRFSSP
B8: CALML5 (protein)
chain: AGELTPEEEAQYKKAFSAVDTDGNGTINAQELGAALKATGKNLSEAQLRKLISEVDSDGDGEISFQEFLTAAKKARAGLEDLQVAFRAFDQDGDGHITVDELRRAMAGLGQPLPQEELDAMIREADVDQDGRVNYEEFARMLAQE

Target: T1, B3GNT2
Assay: Co-IP of FLAG-tagged B3GNT2 followed by mass spectrometry
Assay type: cell-based
Set-up: C-term IgG / C-term flag: unit not given here
How it was run: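 FLAG-tagged B3GNT2 immunoprecipitated from cell lysate (HEPES, 1% Triton X-100, 150 mM NaCl) with anti-FLAG versus […], overnight at 4° C, then captured on Protein A/G magnetic beads for 4 h. Two biological replicates per condition. Peptides fractionated and analyzed by nano-LC on an Orbitrap Elite in data-dependent mode.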

[1] = Co-IP followed by mass spectrometry of B3GNT2, C-term tag, FLAG pull-down
[2] = Co-IP followed by mass spectrometry of B3GNT2, C-term tag, IgG pull-down
[3] = Co-IP followed by mass spectrometry of B3GNT2, N-term tag, FLAG pull-down
[4] = Co-IP followed by mass spectrometry of B3GNT2, N-term tag, IgG pull-down

Molecule	C-term flag [1]	C-term IgG [2]	N-term FLAG [3]	N-term IgG [4]	C-term flag (Co-IP with FLAG antibody, C-terminally FLAG-tagged B3GNT2, mass spectrometry count, unit not given)	N-term FLAG (Co-IP with FLAG antibody, N-terminally FLAG-tagged B3GNT2, mass spectrometry count, unit not given)	C-term IgG (Co-IP with IgG control antibody, C-terminally FLAG-tagged B3GNT2, mass spectrometry count, unit not given)	N-term IgG (Co-IP with IgG control antibody, N-terminally FLAG-tagged B3GNT2, mass spectrometry count, unit not given)
B1	5	3	3	2	–	–	–	–
B2	3	0	2	0	–	–	–	–
B3	4	2	5	4	–	–	–	–
B4	–	–	–	–	7	29	0	0
B5	8	5	6	5	–	–	–	–
B6	7	4	4	4	–	–	–	–
B7	9	2	10	3	–	–	–	–
B8	4	0	0	0	–	–	–	–
